{"source": "patent US20150218277A1", "key": {"[1]": {"target": "T1, Heat Shock Protein 90 (HSP90), endogenous, in human cell lines (human), P07900", "assay": "cell-based or functional assay"}, "[2]": {"target": "HSP90 endogenous to CHO cells (Hamster), P46633", "sequence (P46633 whole entry)": "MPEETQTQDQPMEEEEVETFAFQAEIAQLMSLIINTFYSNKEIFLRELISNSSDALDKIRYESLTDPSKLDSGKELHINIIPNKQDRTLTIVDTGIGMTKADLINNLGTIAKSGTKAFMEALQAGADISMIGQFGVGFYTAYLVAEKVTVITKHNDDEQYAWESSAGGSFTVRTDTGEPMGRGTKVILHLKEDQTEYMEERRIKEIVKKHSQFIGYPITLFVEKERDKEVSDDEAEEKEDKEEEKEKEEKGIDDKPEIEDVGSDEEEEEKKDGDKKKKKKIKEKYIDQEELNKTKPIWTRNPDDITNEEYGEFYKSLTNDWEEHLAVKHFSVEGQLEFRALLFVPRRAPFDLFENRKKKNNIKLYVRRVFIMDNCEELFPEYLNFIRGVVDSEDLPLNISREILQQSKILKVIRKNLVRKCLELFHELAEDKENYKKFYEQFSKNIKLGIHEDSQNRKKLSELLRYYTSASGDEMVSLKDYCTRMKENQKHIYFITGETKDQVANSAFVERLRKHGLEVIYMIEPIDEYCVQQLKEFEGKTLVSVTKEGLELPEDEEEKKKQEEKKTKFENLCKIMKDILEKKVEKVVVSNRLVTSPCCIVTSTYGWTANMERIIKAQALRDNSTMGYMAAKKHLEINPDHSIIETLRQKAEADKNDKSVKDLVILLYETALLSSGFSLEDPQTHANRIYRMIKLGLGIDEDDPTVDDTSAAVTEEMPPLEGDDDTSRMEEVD", "assay": "cell-based or functional assay"}, "[3]": {"target": "T1, Heat Shock Protein 90 (HSP90), …", "assay": "streptavidin affinity purification of biotinylated peptide from lysates of cancer cells (UMSCC1, H1975), immunoblot for HSP90"}}, "note": "Ends that are not written are not given here."}
{"binder": "YGRKKRRQRRRNHVPSDVC (not fully specified (N-terminus))", "note": "[Non Specific Peptide Biotin-[…]-NHVPSDVC]", "values": [{"measurement": "clonogenic survival, A549 cells (WT-EGFR) (surviving fraction)", "setting": "[1]", "value": 0.81}, {"measurement": "clonogenic survival, H1975 cells (T790M-EGFR) (surviving fraction)", "setting": "[1]", "value": 0.77}, {"measurement": "clonogenic survival, H3255 cells (L858R-EGFR) (surviving fraction)", "setting": "[1]", "value": 1}, {"measurement": "clonogenic survival, HeLa cells (WT-EGFR) (surviving fraction)", "setting": "[1]", "value": 0.92}, {"measurement": "clonogenic survival, Het1A normal epithelial cells (WT-EGFR) (surviving fraction)", "setting": "[1]", "value": 0.91}, {"measurement": "clonogenic survival, MRC5 normal fibroblasts (WT-EGFR) (surviving fraction)", "setting": "[1]", "value": 1.04}, {"measurement": "clonogenic survival, UMSCC1 cells (WT-EGFR) (surviving fraction)", "setting": "[1]", "value": 1.02}, {"measurement": "clonogenic survival, UMSCC10B cells (WT-EGFR) (surviving fraction)", "setting": "[1]", "value": 0.96}, {"measurement": "clonogenic survival, UMSCC74B cells (WT-EGFR) (surviving fraction)", "setting": "[1]", "value": 0.89}, {"measurement": "clonogenic survival, CHO cells (EGFR negative) (surviving fraction)", "setting": "[2]", "value": 1.12}]}
{"binder": "YGRKKRRQRRRSVDNPHVC (not fully specified (N-terminus))", "note": "[Specific Peptide Biotin-[…]-SVDNPHVC]", "values": [{"measurement": "clonogenic survival, A549 cells (WT-EGFR) (surviving fraction)", "setting": "[1]", "value": 0.57}, {"measurement": "clonogenic survival, H1975 cells (T790M-EGFR) (surviving fraction)", "setting": "[1]", "value": 0.4}, {"measurement": "clonogenic survival, H3255 cells (L858R-EGFR) (surviving fraction)", "setting": "[1]", "value": 0.71}, {"measurement": "clonogenic survival, HeLa cells (WT-EGFR) (surviving fraction)", "setting": "[1]", "value": 0.72}, {"measurement": "clonogenic survival, Het1A normal epithelial cells (WT-EGFR) (surviving fraction)", "setting": "[1]", "value": 1.02}, {"measurement": "clonogenic survival, MRC5 normal fibroblasts (WT-EGFR) (surviving fraction)", "setting": "[1]", "value": 1.01}, {"measurement": "clonogenic survival, UMSCC1 cells (WT-EGFR) (surviving fraction)", "setting": "[1]", "value": 0.76}, {"measurement": "clonogenic survival, UMSCC10B cells (WT-EGFR) (surviving fraction)", "setting": "[1]", "value": 0.63}, {"measurement": "clonogenic survival, UMSCC74B cells (WT-EGFR) (surviving fraction)", "setting": "[1]", "value": 0.74}, {"measurement": "clonogenic survival, CHO cells (EGFR negative) (surviving fraction)", "setting": "[2]", "value": 0.98}, {"measurement": "fold increase in HSP90 protein binding", "setting": "[3]", "value": "5 to 10", "unit": "fold"}]}
